Measured values published in article PMC12683673 (RSC Chemical Biology, 2025).

Assays:
SEC = biological target: the molecule itself; assay: SEC
[1] = biological target: the molecule itself; assay: negative-stain electron microscopy

B1: ClpP protease from Thermus thermophilus (tetradecameric ClpP14, 300 kDa) (enzyme)
chain: not shown
SEC
  stoichiometry N: 14

B2: ClpX^ΔN unfoldase from Thermus thermophilus (lacks the first 52 residues) (domain or fragment)
chain: not shown
[1]
  stoichiometry N: 6
